Measured values reported in US20250382359A1.

Biological target: GFRAL (co-expressed with RET on HEK293 stable cells) (UniProt Q6UXV0)
Assay: cell-based or functional assay

Sequence of GFRAL (co-expressed with RET on HEK293 stable cells) (Q6UXV0 19-394 limits assumed): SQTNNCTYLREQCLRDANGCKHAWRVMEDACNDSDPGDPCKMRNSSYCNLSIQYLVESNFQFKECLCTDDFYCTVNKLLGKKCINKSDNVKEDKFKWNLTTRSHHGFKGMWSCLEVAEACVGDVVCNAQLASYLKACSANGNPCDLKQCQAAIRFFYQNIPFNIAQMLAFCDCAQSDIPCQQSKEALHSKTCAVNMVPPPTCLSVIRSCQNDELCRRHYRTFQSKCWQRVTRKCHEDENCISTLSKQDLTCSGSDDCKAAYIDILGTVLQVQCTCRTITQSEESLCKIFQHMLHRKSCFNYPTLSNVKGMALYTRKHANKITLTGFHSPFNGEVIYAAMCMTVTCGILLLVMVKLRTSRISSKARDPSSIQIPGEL

Substance: GDF15 (ligand used in the GFRAL/RET cell assays) (from UniProt Q99988 197-308)
- Luciferase assay, GFRAL/RET/SRE reporter HEK293 cells; EC80 of GDF15: 2 nM
- pERK assay, GFRAL/RET HEK293 cells; EC80 of GDF15: 850 pM
